Assay [1] has as its target phosphorylated STAT1 dimer (pSTAT1d) (UniProt P42224). In words: BLI.
Assay [2] addresses GST-tagged TgIST-R2 (Toxoplasma gondii). Kind of assay: BLI. A general note: In BLI a coated tip is dipped into the sample, and binding shifts an interference pattern.

“TgIST-R2 peptide after GST removal (domain or fragment)” had a dissociation constant Kd in assay [1] of 330 nM.

Regarding “phosphorylated STAT1 dimer (pSTAT1d) (from UniProt P42224 132-713) (domain or fragment)”, the Kd in assay [2] was determined as 22 nM.

Broadly, the Kd is the concentration at which binding is half-saturated. Read a low Kd as higher affinity.

The values are drawn from article doi:10.1101/2021.08.09.455663.
